Laboratory results published in paper PMC4615104 (Cell Cycle, 2015).

Target: recombinant hMDM2 (human, UniProt Q00987 1-491)
Experiment: ELISA

Chain of recombinant hMDM2 (Q00987 whole entry): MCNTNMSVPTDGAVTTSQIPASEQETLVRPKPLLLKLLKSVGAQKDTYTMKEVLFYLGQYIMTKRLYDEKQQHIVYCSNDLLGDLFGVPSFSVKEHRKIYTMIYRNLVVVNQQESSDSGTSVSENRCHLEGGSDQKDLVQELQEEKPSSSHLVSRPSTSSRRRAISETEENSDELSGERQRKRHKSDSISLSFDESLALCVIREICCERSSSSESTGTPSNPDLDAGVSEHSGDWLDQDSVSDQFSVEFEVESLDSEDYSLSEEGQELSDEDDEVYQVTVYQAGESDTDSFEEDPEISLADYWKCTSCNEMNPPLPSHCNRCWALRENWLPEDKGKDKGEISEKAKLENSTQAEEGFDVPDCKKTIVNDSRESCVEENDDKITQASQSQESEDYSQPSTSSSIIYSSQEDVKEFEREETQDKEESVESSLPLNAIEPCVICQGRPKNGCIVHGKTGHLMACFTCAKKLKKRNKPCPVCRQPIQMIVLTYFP

B1: recombinant hMDMX^FL (natural protein)
chain: MTSFSTSAQCSTSDSACRISPGQINQVRPKLPLLKILHAAGAQGEMFTVKEVMHYLGQYIMVKQLYDQQEQHMVYCGGDLLGELLGRQSFSVKDPSPLYDMLRKNLVTLATATTDAAQTLALAQDHSMDIPSQDQLKQSAEESSTSRKRTTEDDIPTLPTSEHKCIHSREDEDLIENLAQDETSRLDLGFEEWDVAGLPWWFLGNLRSNYTPRSNGSTDLQTNQDVGTAIVSDTTDDLWFLNESVSEQLGVGIKVEAADTEQTSEEVGKVSDKKVIEVGKNDDLEDSKSLSDDTDVEVTSEDEWQCTECKKFNSPSKRYCFRCWALRKDWYSDCSKLTHSLSTSDITAIPEKENEGNDVPDCRRTISAPVVRPKDAYIKKENSKLFDPCNSVEFLDLAHSSESQETISSMGEQLDNLSEQRTDTENMEDCQNLLKPCSLCEKRPRDGNIIHGRTGHLVTCFHCARRLKKAGASCPICKKEIQLVIKVFIA
  binding result: binds

B2: recombinant hMDMX^p60 (natural protein)
chain: MDIPSQDQLKQSAEESSTSRKRTTEDDIPTLPTSEHKCIHSREDEDLIENLAQDETSRLDLGFEEWDVAGLPWWFLGNLRSNYTPRSNGSTDLQTNQDVGTAIVSDTTDDLWFLNESVSEQLGVGIKVEAADTEQTSEEVGKVSDKKVIEVGKNDDLEDSKSLSDDTDVEVTSEDEWQCTECKKFNSPSKRYCFRCWALRKDWYSDCSKLTHSLSTSDITAIPEKENEGNDVPDCRRTISAPVVRPKDAYIKKENSKLFDPCNSVEFLDLAHSSESQETISSMGEQLDNLSEQRTDTENMEDCQNLLKPCSLCEKRPRDGNIIHGRTGHLVTCFHCARRLKKAGASCPICKKEIQLVIKVFIA
  binding result: binds
